System: K4 kissing-loop RNA reporter
Assay: apparent KD of K4 kissing-loop reporter; higher = weaker reporter binding
Conditions: Eterna round: R107
Description: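 RNA-MaP round R107: designed RNA switches with theophylline, tryptophan, arginine or FMN aptamers are transcribed on-chip within common flanks. They are titrated with a labelled K4 kissing-loop RNA reporter in RNA-MaP buffer (100 mM Tris pH 7.5, 80 mM KCl, 4 mM MgCl2), without ligand or with the indicated ligand. Median apparent KD per design.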

[1] = input ligand: theophylline 20 uM
[2] = input ligand: tryptophan 2.4 mM
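Further: bound reporter read as fluorescence of individual clusters on recovered sequencing chips by microscopy, with normalized cluster intensities fitted with a binding model.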

| Sequence | apparent KD of K4 kissing-loop reporter (input ligand: FMN 200 uM) [µM] | apparent KD of K4 kissing-loop reporter (input ligand: arginine 13.2 mM) [µM] | apparent KD of K4 kissing-loop reporter (input ligand: none) [µM] | apparent KD of K4 kissing-loop reporter [1] [µM] | apparent KD of K4 kissing-loop reporter [2] [µM] |
| --- | --- | --- | --- | --- | --- |
| UGACUGGACUGAAGGAGCGCUAAACUCCUAGUGAUGUUAGGAUAACGAGACAAAGUCUCGAGGCAGGUAGGUCGCAGUCUAGUCU | 0.128 | 0.134 | 0.131 | 0.137 | 0.128 |
| UGACUUGCCUGAGGAUAUCUAGGAUAUGGAUAAAAUAAAAUAAUAAUGGAGUGAUGUUCCAGAAGGAGAGAAGGCAGGUAAGUCU [KL-XFMN-B16 #DoubleAptamer #SwitchBubble] | 0.19 | 0.116 | 0.0961 | 0.17 | 0.084 |
| UGAUACCAGACGGCCGCCACUCCCGUAAGUCAAAGACUUACCAAGAGUAUCGUCCAGUGAUGUUGGAGGACCGGGUCUGGUAUCU [FiskerMod 9 - Jieux - Exclusion - Tryptophan B] | 0.376 | 0.321 | 0.33 | 0.32 | 0.829 |
| UGAUACCAGACGGCCGCCACUCUUGCAGUCAAAGACUGCUAAAAGGAAAUCGUCCAGUGAUGUUGGAGGACCGGGUCUGGUAUCU [TrypBX 15 #SwitchBubble #Palindromic #StaticStem] | 1.42 | 0.774 | 1.37 | 0.774 | 0.736 |
| UGAUACCAGACUGAUACCAGCCACAGAGUCAAAGACUCUGAAAGGGAAACCAGUGAUGUUGGCCCUUGGCAGCAGUCUGGUAUCU [TheoBX 23 #SwitchBubble #StaticStem] | 0.502 | 0.412 | 0.493 | 0.382 | 0.431 |
| UGAUACCAGACUGAUACCAGCCAGUGAUGUUGGCAAUAUCCAAGGUGAGUCAAAGACUCGGGCCCUUGGCAGCAGUCUGGUAUCU [TheoBX 7 #SwitchBubble #StaticStem] | 0.146 | 0.139 | 0.148 | 0.152 | 0.135 |
| UGAUAGGACAGAAGGAGCGGAAGUGAUGUUUCCAAAAGGGUAAGGUGUCAAAAGACACCCUUCCAGGUAGGUCGCUGUCCUAUCU | 0.0939 | 0.109 | 0.099 | 0.111 | 0.0863 |
| UGAUAGGACAGAAGGAGCGGGAGUGAUGUUCCCAAAAGUAUAAGGUGUCAAAAGACACCCUCCCAGGUAGGUCGCUGUCCUAUCU | 0.153 | 0.33 | 0.353 | 0.302 | 0.367 |
| UGAUAGGACAGAAGGAGCGGUAGUGAUGUUACCAAAAGGGUAAGGUGUCAAAAGACACCCUGCCAGGUAGGUCGCUGUCCUAUCU | 0.103 | 0.0899 | 0.0991 | 0.0834 | 0.087 |
| UGAUUUAACUGAAGGAGCGGCAAUUGAUAAGGAAAUAUAGUGAUGUUAUAUAAGAGAGAGAGCCAGGUAGGUCGCAGAGGGAGGA [ExArgB.H] | 0.182 | 0.105 | 0.11 | 0.154 | 0.145 |
| UGCUUUAUCAGAAGGAGCGGGUUGUUCAUAAUAAUAAUCAGUGAUGUUGAUAUAUGAUGAUUCCAGGUAGGUCGCUGAUAUAGCU [KL-XARG-B2] | 0.283 | 0.214 | 0.273 | 0.256 | 0.238 |
| UGGAGUUGACGAAAAGUCAACUCCCGAGAAGGAGCGGACGAAAGUCCAGGUAGGUCGCUCGCUACCAGUGAUGUUGGUACGUAAA | 0.107 | 0.143 | 0.116 | 0.139 | 0.101 |
| UGGAUAUAGUGAUGUUAUAUAGAGAUGGAUACCAGCAGAGAGAAUUGCCCUUGGCAGCCGAAAGAAGUAUCAUUAGAGAAGAAUG [ExTheophyl.Ai] | 0.208 | 0.18 | 0.253 | 0.214 | 0.21 |
| UGGAUUAGGACGGCCGCCACUACGCUGGCAUGAGUGAUGUUCUAAGGCUUGUCAAAGAUCCAGAGUAGGACCGGGUCCAAUGACU [theeternabot_exclusion_KL_Trp_B_38] | 0.293 | 0.225 | 0.275 | 0.261 | 0.271 |
| UGGUUAAGCAGUGAUGUUGCAAGUGAUGAUACCAGUUAAGAAGAGAACCCUUGGCAGCAUAAAGUGCGCUCUGAUGAGUGUGCUU [whbob_SS_Theo_A_w55] | 0.165 | 0.13 | 0.146 | 0.176 | 0.165 |
| UGUACCGAGUCAGGAUAUACCGUCGAAAGACGAAAUGGAGUGAUGUUCCUUAAACUGCGAAAGCAGGUAGAAGGGACUUGGUACU [FmnBS 30 #SwitchBubble #StaticStem #DoubleMagnetSystem] | 0.165 | 0.263 | 0.267 | 0.263 | 0.262 |
| UGUACCGAGUCAGGAUAUAGCGUCGAAAGACGAAAUGGAGUGAUGUUCCUUAAACUGCGAAAGCAGCUAGAAGGGACUUGGUACU [FmnBS 28 #SwitchBubble #StaticStem #DoubleMagnetSystem] | 0.153 | 0.234 | 0.246 | 0.25 | 0.239 |
| UGUACCGAGUCAGGAUAUGGCGUCGAAAGACGAAUCCUAGUGAUGUUAGUGAUCUGCGAAAGCAGUCCAGAAGGGACUUGGUACU [FmnBS 26 U50] | 0.199 | 0.321 | 0.334 | 0.307 | 0.344 |
| UGUAUGUGAUGUGAUACCAGUGAAGAGCCAGUGAUGUUGGUAGAACUGGUAUAUAAAUAACACCCUUGGCAGCACAAUCACGUAC [whbob_Ex_Theo_B_sa99] | 0.289 | 0.243 | 0.286 | 0.32 | 0.314 |
| UGUAUGUGAUUUGAUACCAGACCAGCUGGUGGUACCUGAGUGAUGUUCGGGAUGGUUUGGGUCCCUUGGCAGCAAAUCGCAUACU [KL-SSTheoB20] | 0.251 | 0.144 | 0.164 | 0.148 | 0.17 |
| UGUCAUGGAAACAUGAACGUUAAAAUAAAUCGAGGACCGGUACGGCCGCCACUCGUAUAGCGGUCAGUGAUGUUGACUGUAGUAC [KL-SSTryp-A form2 sub11 #dotplot2>1] | 0.107 | 0.11 | 0.109 | 0.109 | 0.101 |

| Sequence | apparent KD of K4 kissing-loop reporter (input ligand: FMN 200 uM) [µM] | apparent KD of K4 kissing-loop reporter (input ligand: arginine 13.2 mM) [µM] | apparent KD of K4 kissing-loop reporter (input ligand: none) [µM] | apparent KD of K4 kissing-loop reporter [1] [µM] | apparent KD of K4 kissing-loop reporter [2] [µM] |
| --- | --- | --- | --- | --- | --- |
| UGUCAUUGGUCGGCCGCCACUAUAAUAAAAGAGUGAUGUUCUAAAAGACGGACAAAAGUCUGUCGUAGGACCGGGACCGAUGACU [TrypBS 26 #SwitchBubble #StaticStem] | 1.1 | 0.551 | 0.805 | 0.916 | 0.455 |
| UGUCAUUGGUCGGCCGCCACUAUAUAAAAGAGUGAUGUUCUAAAGACGGAUCGAAAGAUCUGUCAUAGGACCGGGACCGAUGACU [TrypBS 20 #SwitchBubble #StaticStem] | 0.293 | 0.204 | 0.308 | 0.294 | 1.14 |
| UGUCAUUGGUCGGCCGCCACUUCAAGGUCAAAGACCAGAGUGAUGUUCUUGCACAAAGUGCUUAGAAGGACCGGGACCGAUGACU [TrypBS 13 #SwitchBubble #K4Middle] | 0.738 | 0.467 | 0.625 | 0.413 | 0.622 |
| UGUCAUUGGUCGGCCGCCACUUCGUAUGAAGUGAUGUUUUGUAGAUUGUGUUGAAAGGUAUGGUGAAGGACCGGGACCGAUGACU [FiskerMod 22 - Jieux - Same State - Tryptophan B] | 0.516 | 0.266 | 0.765 | 0.203 | 0.508 |
| UGUCAUUGGUCUGAUACCAGAAGAAUCUGGAGUGAUGUUCCAAGUCGAUCAAAAGAUCGCUUCCCUUGGCAGCAGACCGAUGACU [TheoBS 24 #SwitchBubble 13 #StaticStem] | 0.315 | 0.291 | 0.3 | 0.188 | 0.298 |
| UGUCAUUGGUCUGAUACCAGCUUGAUCGGAAAACGAUCUGCUGGAGUGAUGUUCCAAUAAAGCCCUUGGCAGCAGACCGAUGACU [TheoBS 7 #SwitchBubble #StaticStem] | 0.854 | 0.569 | 0.991 | 0.961 | 0.763 |
| UGUCAUUGGUCUGAUACCAGUUGAUAAACUGGAGUGAUGUUCCAAGAACGAGAAACUCGCAACCCUUGGCAGCAGACCGAUGACU [TheoBS 17 #SwitchBubble 13 #StaticStem] | 0.302 | 0.0669 | 0.17 | 0.4 | 0.132 |
| UGUGUUGUUUUGAUGUUUGUUGUAAAAUGGCAGGAUAUCGUAGAGGCGAGAAGGGCUUUUAUGCGUUAUGAGUGAUGUUUGUAGG [zvvczmullin] | 0.338 | 0.283 | 0.352 | 0.34 | 0.263 |
| UGUGUUUACCUGACUCAGUGAUGUUGAGAAGGAGCGUGCUAAGGCACAGGUAGGUCGCUCAACCUAAAUUCAGGUGAGCACUAAA | 0.305 | 0.351 | 0.197 | 0.274 | 0.207 |
| UGUUAUGUAUCAGGAUAUUAGUGAUGUUUGUUUAUGUUAGUGAUGUUGAUAUUUGUUUUAUGUAUUUAAGAAGGGAUUGAGAUGU [dcdmullin] | 0.0554 | 0.0198 | 0.0451 | 0.0277 | 0.0509 |
| UGUUUUUACUGAAGGAGCGGCAAUUGAUACGUAGAUAUAGUGAUGUUAUAUAAGAUAGAGAGCCAGGUAGGUCGCAGAUUUUUUC [ExArgB.Y] | 0.179 | 0.201 | 0.164 | 0.172 | 0.136 |
| UUAAGGGUCCGAGGAUAUCUCCCAGUGAUGUUGGGCGAUACGGCCCUUAAGACUAAUGGUUGAAGGAGAGAAGGCGGCUCCCGAU [Edmaisle] | 0.146 | 0.12 | 0.128 | 0.136 | 0.112 |
| UUAAUAAUUCAAGGAUAUGUUUUUUUUUUCGAGUGAUGUUCGGAAUUAAUAAAUUUAAAAGAUUAUACAGAAGGUGAUAAAUAGU [Cynwulf-mod#1] | 0.103 | 0.091 | 0.0883 | 0.103 | 0.0886 |
| UUACAGCCCAGUGAUGUUGGGUAGCGGCGGCGAGGACCGGUACGGCCGCCACUCGGCGCACAGGCGGAGUGAUGUUUUGCUUAAA [Same State Tryptophan A GF 11] | 0.718 | 0.59 | 0.894 | 0.927 | 0.476 |
| UUACAGGAACAAGGAUAUGGCGUUGUAGUGAUGUUACAGCGAAGAGCUCCACGCGAUCGGACAAAACCAGAAGGUGUAUGGAAUC [theeternabot_exclusion_KL_FMN_B_42] | 0.155 | 0.108 | 0.127 | 0.116 | 0.112 |
| UUACUACCCAGUGAUGUUGGGUAGCGGCGGCGAGGACCGGUACGGCCGCCACUCGGCGCACGGGAGUGAUGUUCCUAAGAAUAAA [Same State Tryptophan A GF 9] | 0.295 | 0.306 | 0.335 | 0.35 | 0.14 |
| UUACUGCCCAGUGAUGUUGGGUAUCGGCGGCGAGGACCGGUACGGCCGCCACUCGGCGCACAGGCGGAGUGAUGUUUCGCUUAAA [Same State Tryptophan A GF 12] | 0.621 | 0.539 | 0.627 | 0.631 | 0.186 |
| UUAGCUCUAUAGAGCAAGAGGUAUACUGAUACCAGAGGCUAUAGCCUCCCUUGGCAGCGGAACGAGUGAUGUUCGAAACCUCAUU [AK5 SS Theophylline A] | 0.754 | 0.898 | 0.94 | 0.799 | 0.526 |
| UUAUAUUUUAUAUUUAGUAGAGCUCUAGCUCGAGGACCGGUACGGCCGCCACUCGAGUGAUGUUCGAGUGGAAGAGCUCUACAUU [AK3.1 EXC Tryptophan A] | 0.114 | 0.0999 | 0.11 | 0.0982 | 0.435 |
| UUCCUAUUAUUAACACUAUAUACAACUGAAGGAGCGACAAUAAAGUCAGGUAGGUCGCAGAAUUAAUGAGUGAUGUUCAUUUUUA [JR_ExcArginiA_Sub013] | 0.0819 | 0.141 | 0.0966 | 0.124 | 0.0609 |
| UUCCUCAUGGUAGUGAUGUUGCCGCCCGAUACCAGUCGACGUAUUGACCCUUGGCAGCGGAUCAAGUCCGAUUAAUUUUUUGGUC [theeternabot_sameState_KL_Theo_A_5] | 0.216 | 0.19 | 0.217 | 0.32 | 0.196 |

— the supplement of paper PMC9170038
